# ± gives the uncertainty stated by the source.
# Assay: self-splicing fitness, log relative to wild type (ln ratio); higher = more splicing; Tetrahymena group I intron in knt gene, E. coli kanamycin selection, DiMSum; sequences stand for … in CUCUCU…GGAGGGAAAAGUUAUCAGGCAUGCACCUGGUAGCUAGUCUUUAAACCAAUAGAUUGCAUCGGUUUAAAAGGCAAGACCGUCAAAUUGCGGGAAAGGGGUCAACAGCCGUUCAGUACCAAGUCUCAGGGGAAACUUUGAGAUGGCCUUGCAAAGGGUAUGGUAAUAAGCUGACGGACAUGGUCCUAACCACGCAGCCAAGUCCUAAGUCAACAGAUCUUCUGUUGAUAUGGAUGCAGUUCACAGACUAAAUGUCGGUCGGGGAAGAUGUAUUCUUCUCAUAAGAUAUAGUCGGACCUCUCCUUAAUGGGAGCUAGCGGAUGAAGUGAUGCAACACUGGAGCCGCUGGGAACUAAUUUGUAUGCGAAAGUAUAUUGAUUAGUUUUGGAGUACUCGUGGUCG
# Summary of the method: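 Colonies from six replicate transformations of E. coli BL21(DE3) were pooled and amplicon-sequenced on an Illumina HiSeq 2500. The library placed an intron with all eight P1ex-region nucleotides randomised inside the knt kanamycin-resistance gene on pET-22b(+), and cells grew overnight at 37°C or 30°C on LB agar with or without 25 μg/mL kanamycin (plus 100 μg/mL carbenicillin, 50 μM IPTG, 0.2% rhamnose). Fitness is the DiMSum error-weighted combination of wild-type-normalised replicate fold changes, kanamycin versus none.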
Sequence,self-splicing fitness (ln) (30 °C),self-splicing fitness (ln) (37 °C)
CGUUAGCAAUAUUACGCAAA,-2.53 ± 0.36,-2.67 ± 0.48
AUGCAGCAAUAUUACGGAUA,-2.99 ± 0.17,-2.22 ± 0.17
ACACAGCAAUAUUACGAGAU,-3.79 ± 0.16,-0.784 ± 0.11
UCAAAGCAAUAUUACGCCAU,-3.37 ± 0.24,-2.27 ± 0.19
GAGGAGCAAUAUUACGCAUU,-2.99 ± 0.43,-0.645 ± 0.33
UGCGAGCAAUAUUACGAAAG,-2.87 ± 0.29,-2.87 ± 0.43
AAACAGCAAUAUUACGUCUC,-3.42 ± 0.15,-2.31 ± 0.16
GGUAAGCAAUAUUACGUGGU,-1.33 ± 0.29,-2.48 ± 0.21
GACUAGCAAUAUUACGGGUG,-1.25 ± 0.078,-0.949 ± 0.07
CUAAAGCAAUAUUACGGCUU,-3.8 ± 0.21,-2.44 ± 0.29
GACGAGCAAUAUUACGCAGG,-2.39 ± 0.2,-1.6 ± 0.26
CCGGAGCAAUAUUACGGAAU,-2.95 ± 0.26,-2.96 ± 0.25
CUCUAGCAAUAUUACGAAAA,–,-1.12 ± 0.2
GCAAAGCAAUAUUACGAUUG,-3.55 ± 0.21,-1.28 ± 0.15
CCCGAGCAAUAUUACGUCCA,-3.48 ± 0.25,-2.26 ± 0.24
GUGAAGCAAUAUUACGGAGU,-1.3 ± 0.072,-0.63 ± 0.091
UCCAAGCAAUAUUACGGUAG,-4.7 ± 0.41,-2.21 ± 0.16
UUAUAGCAAUAUUACGGGAG,-2.25 ± 0.25,-1.94 ± 0.31
UACAAGCAAUAUUACGCUUG,-3.1 ± 0.23,-2.79 ± 0.41

Sequence,self-splicing fitness (ln) (30 °C),self-splicing fitness (ln) (37 °C)
AACGAGCAAUAUUACGCUUU,-3.9 ± 0.17,-2.31 ± 0.14
CGCUAGCAAUAUUACGGAUC,-3.32 ± 0.24,-1.14 ± 0.15
GAAAAGCAAUAUUACGACUG,-0.58 ± 0.094,-0.857 ± 0.1
CUUGAGCAAUAUUACGCUAC,-2.82 ± 0.49,-2.02 ± 0.45
UGAAAGCAAUAUUACGUGUA,-1.5 ± 0.091,-1.08 ± 0.11
CGAGAGCAAUAUUACGUUUU,-3.09 ± 0.24,-2.79 ± 0.25
CACCAGCAAUAUUACGCCGU,-2.65 ± 0.13,-2.55 ± 0.18
UACCAGCAAUAUUACGGACG,-0.177 ± 0.055,0.479 ± 0.088
AUAGAGCAAUAUUACGGGAC,-2.71 ± 0.18,-2.36 ± 0.27
CAAAAGCAAUAUUACGAUGA,-0.319 ± 0.074,-0.167 ± 0.075
GAGGAGCAAUAUUACGUCCG,-2.52 ± 0.24,-2.24 ± 0.31
UCUCAGCAAUAUUACGUGAC,-2.02 ± 0.39,-1.82 ± 0.37
UUGGAGCAAUAUUACGCUUA,-2.03 ± 0.16,-2.35 ± 0.23
GUUAAGCAAUAUUACGGGUC,-1.33 ± 0.34,-1.77 ± 0.41
GACUAGCAAUAUUACGGGGG,-3.39 ± 0.27,-1.46 ± 0.25
UGAGAGCAAUAUUACGGCGU,-4.04 ± 0.35,-2.81 ± 0.34
AGUUAGCAAUAUUACGGAAG,-3.57 ± 0.3,-3.07 ± 0.43
UCCGAGCAAUAUUACGUAGA,-2.09 ± 0.14,-1.42 ± 0.2
CUGUAGCAAUAUUACGGGUG,-0.818 ± 0.084,-1.15 ± 0.099
